The values below come from publication PMC5350145, “Either fadD1 or fadD2, Which Encode acyl-CoA Synthetase, Is Essential for the Survival of Haemophilus parasuis SC096” (Frontiers in Cellular and Infection Microbiology, 2017).

Holding throughout (experiment): DTNB free-thiol (CoA) assay, Hanes-Woolf
The target in data set [1] is T1, FadD1 (Glaesserella parasuis, UniProt B8F3K7).
T1 construct: gene lcfA; full length, His-tagged in pET28b (NdeI/HindIII), no tag removal described; E. coli BL21 host; locus tag is that of strain SH0165
T1 sequence (B8F3K7 1-566): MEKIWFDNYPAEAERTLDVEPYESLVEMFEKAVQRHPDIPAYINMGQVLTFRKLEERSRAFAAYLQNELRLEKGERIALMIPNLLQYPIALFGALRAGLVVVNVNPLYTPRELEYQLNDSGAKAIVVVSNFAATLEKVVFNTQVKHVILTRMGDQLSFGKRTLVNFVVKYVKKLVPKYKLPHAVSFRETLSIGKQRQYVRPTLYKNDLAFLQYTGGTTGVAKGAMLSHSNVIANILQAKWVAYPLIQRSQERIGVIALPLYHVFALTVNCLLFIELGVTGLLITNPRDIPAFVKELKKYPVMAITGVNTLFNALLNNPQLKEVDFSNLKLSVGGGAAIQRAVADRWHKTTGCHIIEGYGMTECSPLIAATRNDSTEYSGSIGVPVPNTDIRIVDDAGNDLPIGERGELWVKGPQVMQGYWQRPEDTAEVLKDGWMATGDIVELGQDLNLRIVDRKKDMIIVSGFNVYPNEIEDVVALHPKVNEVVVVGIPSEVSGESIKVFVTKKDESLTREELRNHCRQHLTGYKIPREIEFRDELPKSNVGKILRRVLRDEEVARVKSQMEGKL
It is filed as biochemical. The note with it: 5 mM ATP, 0.5 mM CoA, 10 mM MgCl2, 0.1% Triton X-100, pH 7.2, 37°C; read-out: Kinetic parameters^a / Km^c. From the text: (§1) DTNB free-thiol (CoA) assay, Hanes-Woolf on FadD1

Substrate in data set [2]: CCCCCCCCCCCCCC(=O)O
It is filed as biochemical, Glaesserella parasuis. The conditions noted are these: 5 mM ATP, 0.5 mM CoA, 10 mM MgCl2, 0.1% Triton X-100, pH 7.2, 37°C.
Text: as §1

Substrate in data set [3]: CCCCCCCCCCCCCCCC(=O)O
It is filed as biochemical, Glaesserella parasuis. The conditions noted are these: 5 mM ATP, 0.5 mM CoA, 10 mM MgCl2, 0.1% Triton X-100, pH 7.2, 37°C.
Text: as §1

Substrate in data set [4]: CCCCCCCCCCCCCC(=O)O
It is filed as biochemical, Glaesserella parasuis. The conditions noted are these: 5 mM ATP, 0.5 mM CoA, 10 mM MgCl2, 0.1% Triton X-100, pH 7.2, 37°C. The source says: (§2) DTNB free-thiol (CoA) assay, Hanes-Woolf on FadD2
The source holds these as a separate data set.

Substrate in data set [5]: CCCCCCCCCCCCCCCC(=O)O
It is filed as biochemical, Glaesserella parasuis. The conditions noted are these: 5 mM ATP, 0.5 mM CoA, 10 mM MgCl2, 0.1% Triton X-100, pH 7.2, 37°C.
Text: as §2
The source holds these as a separate data set.

Take `CCCCCCCC/C=C\CCCCCCCC(=O)O` [C18:1]: the Km in data set [1] was found to be 15.6 µM.

B1: FadD1 (Glaesserella parasuis SH0165) (protein)
chain: MEKIWFDNYPAEAERTLDVEPYESLVEMFEKAVQRHPDIPAYINMGQVLTFRKLEERSRAFAAYLQNELRLEKGERIALMIPNLLQYPIALFGALRAGLVVVNVNPLYTPRELEYQLNDSGAKAIVVVSNFAATLEKVVFNTQVKHVILTRMGDQLSFGKRTLVNFVVKYVKKLVPKYKLPHAVSFRETLSIGKQRQYVRPTLYKNDLAFLQYTGGTTGVAKGAMLSHSNVIANILQAKWVAYPLIQRSQERIGVIALPLYHVFALTVNCLLFIELGVTGLLITNPRDIPAFVKELKKYPVMAITGVNTLFNALLNNPQLKEVDFSNLKLSVGGGAAIQRAVADRWHKTTGCHIIEGYGMTECSPLIAATRNDSTEYSGSIGVPVPNTDIRIVDDAGNDLPIGERGELWVKGPQVMQGYWQRPEDTAEVLKDGWMATGDIVELGQDLNLRIVDRKKDMIIVSGFNVYPNEIEDVVALHPKVNEVVVVGIPSEVSGESIKVFVTKKDESLTREELRNHCRQHLTGYKIPREIEFRDELPKSNVGKILRRVLRDEEVARVKSQMEGKL
notes: full length, His-tagged in pET28b (NdeI/HindIII), no tag removal described; E. coli BL21 host; locus tag is that of strain SH0165
As a reminder, the kcat is the maximal rate divided by the concentration of active sites. In general, kcat/Km refers to the second-order rate constant that governs catalysis at low substrate concentration. As for B1, in data set [2], the Km amounted to 41.48 µM, the catalytic constant (kcat) is 0.083 s⁻¹ and the kcat/Km amounted to 2010 M⁻¹ s⁻¹. Also, in data set [3], the Km was found to be 39.90 µM, the kcat turned out to be 0.098 s⁻¹ and the kcat/Km was determined as 2450 M⁻¹ s⁻¹.

B2: FadD2 (Glaesserella parasuis SH0165) (protein)
chain: MASLDFHFVNRFRLQAKKWLNRTALRFREQAQWQEMSWQTFQQEIDRFSYALIAQHIDIQDKIGIFANNMPRWTIADFGAMQARAVAVPIYATNTAKQVEYIVNDADIKILFVGDQEQLDQVCQIANNCPQLMKIVAMKANMDLRDLPNACYWEDFLDVVPNEAEFEKRLNSKQLSDLFTLIYTSGTTGEPKGVMLDYANLAHQLNAHDLALNVNEDDVSLSFLPLSHIFERAWVAYVFHRGATNCYLEDTNHVRDALTTLKPTVMCAVPRFYEKIYTAVWDKVEKAPAHRRALFNWAIRVGEKHYQTEQPSQWLRLQYALADKLVLTKLRALLGGRIKMMPCGGAKLEASIGSFFHSIGINIKLGYGMTETTATVSCWQDKGFNPNSIGTLMPNAEVKIGEENEILVRGGMVMRGYYKKPEETAKAFTEDGFLRTGDVGEMDSCGNLFITDRLKELMKTLNGKYIAPQYIEGKIGKDKFIEQIAVIADAKKYVSALIVPCFDSLEEYAKQLNIKYQDRIELIKHSDIIQMFERRIHELQKELPSFEQVKKFTLLPQAFSTAMEEITPTLKLRRKVIMQRYREQIEEMYNERSLT
notes: as for B1
For B2, in data set [4], the Km amounted to 173.40 µM, the kcat was 0.002 s⁻¹ and the kcat/Km stood at 10 M⁻¹ s⁻¹. In addition, in data set [5], the Km worked out at 128.30 µM, the kcat turned out to be 0.020 s⁻¹ and the specificity constant (kcat/Km) came out at 160 M⁻¹ s⁻¹.
